{"source": "the supplement of paper PMC7125110", "parents": {"B1": {"name": "glmS ribozyme (parent)", "chain": "AUAAAAGCGCCAGAACUACAGAAAUGUAGUUGACGAGGAGGAGGUUUAUCGAAUUUUCGGCGGAUGCCUCCAAA"}}, "settings_in_all_cases": "with glucosamine-6-phosphate", "key": {"glucosamine-6-phosphate [1]": {"variants_of": "B1", "test": "kcat; higher = faster cleavage; RNA array", "how_it_was_run": "(§1)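 Barcoded ribozyme variants were transcribed in situ on sequenced MiSeq chips by E. coli RNA polymerase. At 37 °C, a hybridised Cy3 probe tracked them while glucosamine-6-phosphate (40 μM to 10 mM) in HEPES/KCl/Mg(OAc)2 buffer flowed in and tiles were imaged over ~14 h. Per-tile medians of signals normalised to baseline and to non-cleaving reference variants were fit to one- or two-exponential decays, giving kobs. kcat and KM came from weighted Michaelis–Menten fits across concentrations.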"}, "glucosamine-6-phosphate [2]": {"variants_of": "B1", "test": "self-cleavage kobs at 40 uM GlcN6P; higher = faster cleavage; RNA array", "how_it_was_run": "as §1"}, "glucosamine-6-phosphate [3]": {"variants_of": "B1", "test": "self-cleavage kobs at 160 uM GlcN6P; higher = faster cleavage; RNA array", "how_it_was_run": "as §1"}, "glucosamine-6-phosphate [4]": {"variants_of": "B1", "test": "self-cleavage kobs at 640 uM GlcN6P; higher = faster cleavage; RNA array", "how_it_was_run": "as §1"}, "glucosamine-6-phosphate [5]": {"variants_of": "B1", "test": "self-cleavage kobs at 2500 uM GlcN6P; higher = faster cleavage; RNA array", "how_it_was_run": "as §1"}, "glucosamine-6-phosphate [6]": {"variants_of": "B1", "test": "self-cleavage kobs at 10000 uM GlcN6P; higher = faster cleavage; RNA array", "how_it_was_run": "as §1"}, "glucosamine-6-phosphate [7]": {"variants_of": "B1", "test": "KM; higher = weaker cofactor use; RNA array", "how_it_was_run": "as §1"}}, "note": "± gives the standard error. For some assays here: Fewer inactive variants are shown than the library holds.", "data": [{"variant": "AUAAAAGCGCCCGAACUACAGAAAUGUAGUUGACGAGGAGGAGGUUUAUCGAAUUUUCGGCGGAUGCCUCUAAA", "note": "[A12C C71U]", "values": [{"measurement": "kcat", "setting": "glucosamine-6-phosphate [1]", "result": "0.0215 ± 0.0089", "unit": "s⁻¹"}, {"measurement": "self-cleavage kobs at 40 uM GlcN6P", "setting": "glucosamine-6-phosphate [2]", "result": "0.000587 ± 7e-05", "unit": "s⁻¹"}, {"measurement": "self-cleavage kobs at 160 uM GlcN6P", "setting": "glucosamine-6-phosphate [3]", "result": "0.00112 ± 0.00015", "unit": "s⁻¹"}, {"measurement": "self-cleavage kobs at 640 uM GlcN6P", "setting": "glucosamine-6-phosphate [4]", "result": "0.00448 ± 0.00062", "unit": "s⁻¹"}, {"measurement": "self-cleavage kobs at 2500 uM GlcN6P", "setting": "glucosamine-6-phosphate [5]", "result": "0.0206 ± 0.0035", "unit": "s⁻¹"}, {"measurement": "self-cleavage kobs at 10000 uM GlcN6P", "setting": "glucosamine-6-phosphate [6]", "result": "0.0164 ± 0.0023", "unit": "s⁻¹"}]}, {"variant": "AUAAAAGCGCCCGAACUACAGAAAUGUAGUUGACGAGGAGGAGGUUUAUCGAAUUUUCGGCGGAUGCCUCGAAA", "note": "[A12C C71G]", "values": [{"measurement": "kcat", "setting": "glucosamine-6-phosphate [1]", "result": "0.000645 ± 0.00023", "unit": "s⁻¹"}, {"measurement": "self-cleavage kobs at 40 uM GlcN6P", "setting": "glucosamine-6-phosphate [2]", "result": "4.39e-05 ± 8.5e-06", "unit": "s⁻¹"}, {"measurement": "self-cleavage kobs at 160 uM GlcN6P", "setting": "glucosamine-6-phosphate [3]", "result": "0.000153 ± 2.4e-05", "unit": "s⁻¹"}, {"measurement": "self-cleavage kobs at 640 uM GlcN6P", "setting": "glucosamine-6-phosphate [4]", "result": "0.000264 ± 3e-05", "unit": "s⁻¹"}, {"measurement": "self-cleavage kobs at 2500 uM GlcN6P", "setting": "glucosamine-6-phosphate [5]", "result": "0.000424 ± 7.3e-05", "unit": "s⁻¹"}, {"measurement": "self-cleavage kobs at 10000 uM GlcN6P", "setting": "glucosamine-6-phosphate [6]", "result": "0.00109 ± 0.00015", "unit": "s⁻¹"}]}, {"variant": "AUAAAAGCGCCCGAACUACAGAAAUGUAGUUGACGAGGAGGAGGUUUAUCGAAUUUUCGGCGGAUGCUUCCAAA", "note": "[A12C C68U]", "values": [{"measurement": "kcat", "setting": "glucosamine-6-phosphate [1]", "result": "0.000589 ± 4.7e-05", "unit": "s⁻¹"}, {"measurement": "KM", "setting": "glucosamine-6-phosphate [7]", "result": "1.37 ± 0.22", "unit": "mM"}, {"measurement": "self-cleavage kobs at 160 uM GlcN6P", "setting": "glucosamine-6-phosphate [3]", "result": "6.12e-05 ± 8.3e-06", "unit": "s⁻¹"}, {"measurement": "self-cleavage kobs at 640 uM GlcN6P", "setting": "glucosamine-6-phosphate [4]", "result": "0.00018 ± 1.7e-05", "unit": "s⁻¹"}, {"measurement": "self-cleavage kobs at 2500 uM GlcN6P", "setting": "glucosamine-6-phosphate [5]", "result": "0.000436 ± 3.7e-05", "unit": "s⁻¹"}, {"measurement": "self-cleavage kobs at 10000 uM GlcN6P", "setting": "glucosamine-6-phosphate [6]", "result": "0.000494 ± 3.6e-05", "unit": "s⁻¹"}]}, {"variant": "AUAAAAGCGCCCGAACUACAGAAAUGUAGUUGACGAGGAGGAGGUUUAUUGAAUUUUCGGCGGAUGCCUCCAAA", "note": "[A12C C50U]", "values": [{"measurement": "kcat", "setting": "glucosamine-6-phosphate [1]", "result": "0.000203 ± 3.3e-05", "unit": "s⁻¹"}, {"measurement": "KM", "setting": "glucosamine-6-phosphate [7]", "result": "4.75 ± 1.1", "unit": "mM"}, {"measurement": "self-cleavage kobs at 2500 uM GlcN6P", "setting": "glucosamine-6-phosphate [5]", "result": "7.01e-05 ± 1.5e-05", "unit": "s⁻¹"}]}, {"variant": "AUAAAAGCGCCCUAACUACAGAAAUGUAGUUGACGAGGAGGAGGUUUAUCGAAUUUUCGGCGGAUGCCUCCAAA", "note": "[A12C G13U]", "values": [{"measurement": "kcat", "setting": "glucosamine-6-phosphate [1]", "result": "0.000279 ± 2.1e-05", "unit": "s⁻¹"}, {"measurement": "KM", "setting": "glucosamine-6-phosphate [7]", "result": "6.2 ± 0.85", "unit": "mM"}, {"measurement": "self-cleavage kobs at 640 uM GlcN6P", "setting": "glucosamine-6-phosphate [4]", "result": "2.43e-05 ± 6.8e-06", "unit": "s⁻¹"}, {"measurement": "self-cleavage kobs at 2500 uM GlcN6P", "setting": "glucosamine-6-phosphate [5]", "result": "8.18e-05 ± 1e-05", "unit": "s⁻¹"}, {"measurement": "self-cleavage kobs at 10000 uM GlcN6P", "setting": "glucosamine-6-phosphate [6]", "result": "0.000172 ± 1.6e-05", "unit": "s⁻¹"}]}, {"variant": "AUAAAAGCGCCCGAACUACAGAAAUGUAGUUGACGAGGAGGAGGUUUAUCGAAUUUUCGGCGGAUGGCUCCAAA", "note": "[A12C C67G]", "values": [{"measurement": "kcat", "setting": "glucosamine-6-phosphate [1]", "result": "0.00173 ± 0.00067", "unit": "s⁻¹"}, {"measurement": "self-cleavage kobs at 40 uM GlcN6P", "setting": "glucosamine-6-phosphate [2]", "result": "6.89e-05 ± 6e-06", "unit": "s⁻¹"}, {"measurement": "self-cleavage kobs at 160 uM GlcN6P", "setting": "glucosamine-6-phosphate [3]", "result": "0.000199 ± 2.4e-05", "unit": "s⁻¹"}, {"measurement": "self-cleavage kobs at 640 uM GlcN6P", "setting": "glucosamine-6-phosphate [4]", "result": "0.000444 ± 5.8e-05", "unit": "s⁻¹"}, {"measurement": "self-cleavage kobs at 2500 uM GlcN6P", "setting": "glucosamine-6-phosphate [5]", "result": "0.00106 ± 0.00012", "unit": "s⁻¹"}, {"measurement": "self-cleavage kobs at 10000 uM GlcN6P", "setting": "glucosamine-6-phosphate [6]", "result": "0.00265 ± 0.00032", "unit": "s⁻¹"}]}, {"variant": "AUAAAAGCGCCCGAACUACAGAAAUGUAAUUGACGAGGAGGAGGUUUAUCGAAUUUUCGGCGGAUGCCUCCAAA", "note": "[A12C G29A]", "values": [{"measurement": "kcat", "setting": "glucosamine-6-phosphate [1]", "result": "0.00648 ± 0.0024", "unit": "s⁻¹"}, {"measurement": "self-cleavage kobs at 40 uM GlcN6P", "setting": "glucosamine-6-phosphate [2]", "result": "0.000188 ± 3.3e-05", "unit": "s⁻¹"}, {"measurement": "self-cleavage kobs at 160 uM GlcN6P", "setting": "glucosamine-6-phosphate [3]", "result": "0.000322 ± 0.00011", "unit": "s⁻¹"}, {"measurement": "self-cleavage kobs at 640 uM GlcN6P", "setting": "glucosamine-6-phosphate [4]", "result": "0.00107 ± 0.00022", "unit": "s⁻¹"}, {"measurement": "self-cleavage kobs at 2500 uM GlcN6P", "setting": "glucosamine-6-phosphate [5]", "result": "0.00331 ± 0.00067", "unit": "s⁻¹"}, {"measurement": "self-cleavage kobs at 10000 uM GlcN6P", "setting": "glucosamine-6-phosphate [6]", "result": "0.00557 ± 0.00097", "unit": "s⁻¹"}]}]}
